This note sets out measurements from IntAct's records for PubMed 12386165.

B1: Solute carrier family 12 member 6 (Mus musculus), Q924N4-1 (parent)
chain: MHPPEATTKMSSVRFMVTPTKIDDIPGLSDTSPDLSSRSSSRVRFSSRESVPETSRSEPMSELSGATTSLATVALDPSSDRTSNPQDVTEDPSQNSITGEHSQLLDDGHKKARNAYLNNSNYEEGDEYFDKNLALFEEEMDTRPKVSSLLNRMANYTNLTQGAKEHEEAENITEGKKKPTKSPQMGTFMGVYLPCLQNIFGVILFLRLTWVVGTAGILQAFAIVLICCCCTMLTAISMSAIATNGVVPAGGSYFMISRALGPEFGGAVGLCFYLGTTFAAAMYILGAIEIFLVYIVPRAAIFRSDDALKESAAMLNNMRVYGTAFLVLMVLVVFIGVRYVNKFASLFLACVIVSILAIYAGAIKSSFAPPHFPVCMLGNRTLSSRHLDICSKTKEVDNMTVPSKLWGFFCNSSQFFNATCDEYFVHNNVISIQGIPGLASGIITENLWSNYLPKGEIIEKPSAKSSDVLGNLNHEYVLADITTSFTLLVGIFFPSVTGIMAGSNRSGDLKDAQKSIPIGTILAILTTSFVYLSNVVLFGACIEGVVLRDKFGDAVKGNLVVGTLSWPSPWVIVIGSFFSTCGAGLQSLTGAPRLLQAIAKDNIIPFLRVFGHSKANGEPTWALLLTAAIAELGILIASLDLVAPILSMFFLMCYLFVNLACALQTLLRTPNWRPRFRYYHWALSFMGMSICLALMFISSWYYAIVAMVIAGMIYKYIEYQGAEKEWGDGIRGLSLSAARFALLRLEEGPPHTKNWRPQLLVLLKLDEDLHVKHPRLLTFASQLKAGKGLTIVGSVIVGNFLENYGDALAAEQTIKHLMEAEKVKGFCQLVVAAKLKEGISHLIQSCGLGGMKHNTVVMGWPNGWRQSEDARAWKTFIGTVRVTTAAHLALLVAKNVSFFPSNVEQFSEGNIDVWWIVHDGGMLMLLPFLLKQHKVWRKCSIRIFTVAQLEDNSIQMKKDLATFLYHLRIEAEVEVVEMHDSDISAYTYERTLMMEQRSQMLRHMRLSKTERDREAQLVKDRNSMLRLTSIGSDEDEETETYQEKVHMTWTKDKYMASRGQKVKSMEGFQDLLNMRPDQSNVRRMHTAVKLNEVIVNKSHEAKLVLLNMPGPPRNPEGDENYMEFLEVLTEGLERVLLVRGGGSEVITIYS
B2: Solute carrier family 12 member 1 (Homo sapiens), Q13621 (parent)
chain: MSLNNSSNVFLDSVPSNTNRFQVSVINENHESSAAADDNTDPPHYEETSFGDEAQKRLRISFRPGNQECYDNFLQSGETAKTDASFHAYDSHTNTYYLQTFGHNTMDAVPKIEYYRNTGSISGPKVNRPSLLEIHEQLAKNVAVTPSSADRVANGDGIPGDEQAENKEDDQAGVVKFGWVKGVLVRCMLNIWGVMLFIRLSWIVGEAGIGLGVLIILLSTMVTSITGLSTSAIATNGFVRGGGAYYLISRSLGPEFGGSIGLIFAFANAVAVAMYVVGFAETVVDLLKESDSMMVDPTNDIRIIGSITVVILLGISVAGMEWEAKAQVILLVILLIAIANFFIGTVIPSNNEKKSRGFFNYQASIFAENFGPRFTKGEGFFSVFAIFFPAATGILAGANISGDLEDPQDAIPRGTMLAIFITTVAYLGVAICVGACVVRDATGNMNDTIISGMNCNGSAACGLGYDFSRCRHEPCQYGLMNNFQVMSMVSGFGPLITAGIFSATLSSALASLVSAPKVFQALCKDNIYKALQFFAKGYGKNNEPLRGYILTFLIAMAFILIAELNTIAPIISNFFLASYALINFSCFHASYAKSPGWRPAYGIYNMWVSLFGAVLCCAVMFVINWWAAVITYVIEFFLYVYVTCKKPDVNWGSSTQALSYVSALDNALELTTVEDHVKNFRPQCIVLTGGPMTRPALLDITHAFTKNSGLCICCEVFVGPRKLCVKEMNSGMAKKQAWLIKNKIKAFYAAVAADCFRDGVRSLLQASGLGRMKPNTLVIGYKKNWRKAPLTEIENYVGIIHDAFDFEIGVVIVRISQGFDISQVLQVQEELERLEQERLALEATIKDNECEEESGGIRGLFKKAGKLNITKTTPKKDGSINTSQSMHVGEFNQKLVEASTQFKKKQEKGTIDVWWLFDDGGLTLLIPYILTLRKKWKDCKLRIYVGGKINRIEEEKIVMASLLSKFRIKFADIHIIGDINIRPNKESWKVFEEMIEPYRLHESCKDLTTAEKLKRETPWKITDAELEAVKEKSYRQVRLNELLQEHSRAANLIVLSLPVARKGSISDLLYMAWLEILTKNLPPVLLVRGNHKNVLTFYS

In assay [1] the parent is B1. The conditions noted are these: with oxsr1_mouse Oxsr1, Q6P9R2.
Target sequence in this assay (Q6P9R2 whole entry): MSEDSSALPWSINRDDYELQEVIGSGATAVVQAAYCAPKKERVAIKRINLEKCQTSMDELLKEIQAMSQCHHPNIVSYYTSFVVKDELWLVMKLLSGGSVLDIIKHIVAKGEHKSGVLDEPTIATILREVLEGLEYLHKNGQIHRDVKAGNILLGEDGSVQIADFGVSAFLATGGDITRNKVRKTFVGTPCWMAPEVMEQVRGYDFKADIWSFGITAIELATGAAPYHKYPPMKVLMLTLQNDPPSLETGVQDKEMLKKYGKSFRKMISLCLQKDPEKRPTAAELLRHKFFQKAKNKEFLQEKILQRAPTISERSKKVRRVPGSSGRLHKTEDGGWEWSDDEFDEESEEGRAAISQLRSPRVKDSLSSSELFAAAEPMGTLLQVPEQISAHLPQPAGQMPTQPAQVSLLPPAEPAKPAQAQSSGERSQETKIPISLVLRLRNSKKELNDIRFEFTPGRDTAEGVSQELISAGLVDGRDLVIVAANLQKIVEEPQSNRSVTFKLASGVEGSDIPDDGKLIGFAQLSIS
Variants of B1 are the subject of assay [2]. The conditions noted are these: with stk39_mouse Stk39, Q9Z1W9.
Assay [3] covers variants of B2. The conditions noted are these: with stk39_mouse Stk39, Q9Z1W9. This is another data set of the same source.
The variants in assay [4] derive from B2. The conditions noted are these: with oxsr1_mouse Oxsr1, Q6P9R2. This is another data set of the same source.
Target sequence in this assay (Q6P9R2 whole entry): as above

In the case of P19A, the “effect of a mutation on the interaction” value in assay [1] and in assay [2] was “decreasing interaction” in each case.
In the case of R14A, the “effect of a mutation on the interaction” value in assay [1] and in assay [2] was “decreasing interaction” throughout.
With I22A, the “effect of a mutation on the interaction” value in assay [1] and in assay [2] was “decreasing interaction” each time.
Turning to V17A, the “effect of a mutation on the interaction” value in assay [1] and in assay [2] was “decreasing interaction” throughout.
For F15A, the “effect of a mutation on the interaction” value in assay [1] and in assay [2] was “decreasing interaction” in each case.
As for K21A, the “effect of a mutation on the interaction” value in assay [1] and in assay [2] was “decreasing interaction” each time.
Turning to V23A, the “effect of a mutation on the interaction” value in assay [3] and in assay [4] was “decreasing interaction” in each case.
For the variant E28A, the “effect of a mutation on the interaction” value in assay [3] and in assay [4] was “decreasing interaction” throughout.
For V25A, the “effect of a mutation on the interaction” value in assay [3] and in assay [4] was “decreasing interaction” in each case.
Consider R20A, for which the “effect of a mutation on the interaction” value in assay [3] and in assay [4] was “decreasing interaction” in each case.
In the case of N27A, the “effect of a mutation on the interaction” value in assay [3] and in assay [4] was “decreasing interaction” throughout.
For the variant F21A, the “effect of a mutation on the interaction” value in assay [3] and in assay [4] was “decreasing interaction” each time.
Regarding S24A, the “effect of a mutation on the interaction” value in assay [3] and in assay [4] was “decreasing interaction” throughout.
